The text below walks through data of publication PMC9314101.

This data set has as its target PtrMYB074 (Populus trichocarpa, UniProt B9IEX5 1-371). As to the kind of experiment: EMSA. For orientation: A gel shift assay detects complexes by their altered migration in electrophoresis.

B1: PtrbHLH186 promoter W-box probe (dsDNA)
DNA 1: CTATAGTTTGACTGTA
DNA 2: TACAGTCAAACTATAG
Turning to B1, the binding result is listed as “no binding”.
